Experimental data: patent publication US20230120018A1, “PREDICTION OF PEPTIDE CLEAVAGE IN POLYPEPTIDES THROUGH PHYSICS-BASED SIMULATIONS” (Genentech, Inc., priority 2020, published 2023)

Assays:
[1] = Asn-Pro hydrolysis in unstructured linear peptide mimics of CDR-L3 at accelerated temperature; format: physicochemical; settings: pH 7.4, 90° C.
Experimental: To examine the effect of antibody structure on the rate of Asn-Pro hydrolysis, thermal stress was performed on unstructured, linear peptides representing the CDR-L3 sequence of Fab1 and Mab3. Since it had been previously shown that the rate of hydrolysis in unstructured peptides incubated at 37° C. was slow, accelerated temperature conditions (90 and 70° C.) were performed and the temperature dependence extrapolated to calculate the rate at 37° C. Very slow rates of peptide hydrolysis (Table 2), with half-lives calculated for 37° C. of greater than 2000 days, were observed. As expected, the rate of hydrolysis was slower, by about 3-fold, for incubations performed in pH 5 buffer.

[2] = Neutral pH 37 C stability of commercial antibodies, fragmentation by mass spectroscopy and CE-SDS; format: physicochemical; settings: PBS pH 7.4, up to 4 weeks at 37° C.
Experimental: In addition to the data shown for Mab5 in Table 1 and FIG. 9, neutral pH, 37 C stability data was generated for all except muromonab, teplizumab, tovetumab, and visilizumab. Antibodies formulated in PBS, pH 7.4, were incubated for up to 4 weeks at 37° C. and evidence for fragmentation was obtained by mass spectroscopy and capillary electrophoresis sodium dodecyl sulfate (CE-SDS) for both intact and reduced samples.

| Molecule | % Pro peak formation/day at 90° C. [1] [% Pro peak formation/day] | Light chain fragment observed? (hydrolysis at Asn-Pro in CDR-L3) [2] |
| --- | --- | --- |
| Fab1: peptide mimic of Fab1 CDR-L3 segment, QQWSSNPWTFGQ | 1.0 | – |
| Fab2: peptide mimic of Fab2 CDR-L3 segment, QQGYGNPFTFGQ | 2.9 | – |
| Mab3: peptide mimic of Mab3 CDR-L3 segment, QQWSSNPYTFGQ | 2.9 | – |
| Mab4: peptide mimic of Mab4 CDR-L3 segment, QQGINNPLTFGQ | 1.9 | – |
| veltuzumab [reference compound] | – | detected and Yes |
| otlertuzumab (antibody, chains of the INN, looked up, V domains shown) VH: EVQLVQSGAEVKKPGESLKISCKGSGYSFTGYNMNWVRQMPGKGLEWMGNIDPYYGGTTYNRKFKGQVTISADKSISTAYLQWSSLKASDTAMYYCARSVGPFDSWGQGTLVTVSS VL: EIVLTQSPATLSLSPGERATLSCRASENVYSYLAWYQQKPGQAPRLLIYFAKTLAEGIPARFSGSGSGTDFTLTISSLEPEDFAVYYCQHHSDNPWTFGQGTKVEIK | – | not and No |
